Results: PMC5216932

Molecular target: Fas/CD95 (human (endogenous in U-2 OS)) (UniProt P25445)
UniProt P25445, sequence (P25445 26-335): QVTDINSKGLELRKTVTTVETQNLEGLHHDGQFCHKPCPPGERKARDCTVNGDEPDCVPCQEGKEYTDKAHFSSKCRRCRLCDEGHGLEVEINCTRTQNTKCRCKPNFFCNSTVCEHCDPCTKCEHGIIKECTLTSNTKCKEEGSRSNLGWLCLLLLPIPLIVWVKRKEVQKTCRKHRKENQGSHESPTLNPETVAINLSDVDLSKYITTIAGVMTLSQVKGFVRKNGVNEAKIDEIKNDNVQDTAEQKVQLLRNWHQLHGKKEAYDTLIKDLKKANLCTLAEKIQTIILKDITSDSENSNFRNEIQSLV

## Fas ligand (from UniProt P48023 1-281)
  U-2 OS cell death with no granzyme-B FRET signal change in co-culture with primary NK cells (3-day cultured in IL-2), with 1.5 μg/ml anti-Fas neutralizing antibody (clone ZB4); control about 65%: 28%
